Reference: publication PMC10099132, “Sequence and Structural Motifs Controlling the Broad Substrate Specificity of the Mycobacterial Hormone-Sensitive Lipase LipN” (ACS Omega, 2023)

Columns and labels:
[1] = biological target: T1, MmLipN (LipN from M. marinum) (Mycobacterium marinum, UniProt B2HIK1); test: p-nitrophenol release at […] nm, Michaelis-Menten fit; assay type: biochemical; details: PBS, acetylated BSA 0.1 mg/mL, acetonitrile, 36 nM enzyme, 25 °C
T1 construct: E. coli LOBSTR (DE3); Ni-NTA
T1 sequence (B2HIK1 1-372): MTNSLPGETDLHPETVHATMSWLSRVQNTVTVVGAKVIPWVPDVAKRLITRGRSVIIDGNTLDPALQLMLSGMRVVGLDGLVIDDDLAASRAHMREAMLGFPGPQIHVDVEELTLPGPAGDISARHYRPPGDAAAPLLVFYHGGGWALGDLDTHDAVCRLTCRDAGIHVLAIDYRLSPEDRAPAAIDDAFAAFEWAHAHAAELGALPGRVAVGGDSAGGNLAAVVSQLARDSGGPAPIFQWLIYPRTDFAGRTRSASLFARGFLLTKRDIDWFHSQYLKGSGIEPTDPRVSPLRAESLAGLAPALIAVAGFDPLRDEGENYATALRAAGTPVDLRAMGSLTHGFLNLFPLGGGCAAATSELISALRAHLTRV

[2] = system: O=C1OC2(c3ccc(OCOC(=O)C4(C(F)(F)F)CC4)cc3Oc3cc(OCOC(=O)C4(C(F)(F)F)CC4)ccc32)c2ccccc21; test: purified protein, by the assay type; set-up: fluorogenic ester hydrolysis, fluorescein release, Michaelis-Menten fit of initial rates
Protocol: (§1) The enzyme kinetic activity of LipN was assayed via the hydrolysis of the fluorogenic substrates (Figure 1) in accordance with past kinetic analysis of mycobacterial serine hydrolases.[37],[38],[40],[66],[67] Kinetic assays were run in triplicate on black 96-well plates in a Synergy H1 Hybrid Reader (BioTek). Fluorogenic ester substrates (10 mM in DMSO) were diluted to a starting concentration of 100 μM in PBS containing acetylated BSA (Sigma; 0.1 mg/mL). Eight serial dilutions (1:1; 120 μL into 240 μL total volume) of each substrate were made using PBS–BSA. Fluorogenic substrate dilutions (95 μL) were then transferred to opaque 96-well microplate (Corning, Lowell, MA). Reactions were initiated by quickly adding enzyme (5 μL, 3.0 nM final concentration) to each assay well, mixed, and the fluorescence counts measured every 26–30 s for 4.5 min with a BioTek H1 Synergy multimode plate reader (Biotek Instruments; Winooski, VT) at ambient temperature. The instrument measured relative fluorescence through excitation at λ = 485 nm and emission at λ = 520 nm. The fluorescence change was converted to molar concentrations using a fluorescein standard curve (300–2.3 nM), whose fluorescence was measured simultaneously. The initial rates of the enzyme-catalyzed reactions were measured in triplicate and plotted versus fluorogenic substrate concentration. […] (A) Activation of fluorogenic ester substrates by MmLipN. Each of the substrates is composed of diacyloxymethyl ether fluorescein with varying R-groups. The differing R-groups have been organized into classes and colored based on chemical functionality. All of the substrates were synthesized as described previously.[38],[43] Substrates 6, 10–11, 14–15, 20, 23–30, and 33 were newly synthesized for this characterization of MmLipN. Detailed synthetic characterization is provided in the Supporting Information. (B) Global comparison of the catalytic specificity (kcat/KM) of MmLipN against each of the 33 substrates with ester classes labeled. Catalytic efficiency values (kcat/Km) are given ± SD based on at least three independent kinetic replicates. (C, D) Kinetic activity of MmLipN against high-activity ester substrates 1 (black circles), 7 (blue squares), and 20 (red diamonds) and low-activity ester substrates 12 (green circles), 16 (red squares), 27 (purple diamonds), and 31 (orange squares). Low- and high-activity substrates display classic Michaelis–Menten kinetics with MmLipN and activity above background hydrolysis rates. Traces colored based on ester classification from (A, B). All measurements were completed in at least triplicate and shown ± SD.

[3] = system: CC(=O)OCOc1ccc2c(c1)Oc1cc(OCOC(C)=O)ccc1C21OC(=O)c2ccccc21; test: purified protein, by the assay type; set-up: fluorogenic ester hydrolysis, fluorescein release, Michaelis-Menten fit of initial rates
Protocol: as §1

[4] = system: CS(=O)(=O)C1(C(=O)OCOc2ccc3c(c2)Oc2cc(OCOC(=O)C4(S(C)(=O)=O)CC4)ccc2C32OC(=O)c3ccccc32)CC1; test: purified protein, by the assay type; set-up: fluorogenic ester hydrolysis, fluorescein release, Michaelis-Menten fit of initial rates
Protocol: as §1

[5] = system: O=C(OCOc1ccc2c(c1)Oc1cc(OCOC(=O)c3ccco3)ccc1C21OC(=O)c2ccccc21)c1ccco1; test: purified protein, by the assay type; set-up: fluorogenic ester hydrolysis, fluorescein release, Michaelis-Menten fit of initial rates
Protocol: as §1

[6] = system: O=C1OC2(c3ccc(OCOC(=O)C4CCCC4)cc3Oc3cc(OCOC(=O)C4CCCC4)ccc32)c2ccccc21; test: purified protein, by the assay type; set-up: fluorogenic ester hydrolysis, fluorescein release, Michaelis-Menten fit of initial rates
Protocol: as §1

[7] = system: O=C1OC2(c3ccc(OCOC(=O)C4(O)CC4)cc3Oc3cc(OCOC(=O)C4(O)CC4)ccc32)c2ccccc21; test: purified protein, by the assay type; set-up: fluorogenic ester hydrolysis, fluorescein release, Michaelis-Menten fit of initial rates
Protocol: as §1

[8] = system: CCCC(=O)Oc1ccc([N+](=O)[O-])cc1; test: purified protein, by the assay type; set-up: p-nitrophenyl ester hydrolysis, absorbance at 412 nm, Michaelis-Menten fit
From the text: (A) Classic p-nitrophenyl ester substrates were used as conformation for fluorogenic substrate measurements (Figure 1). (B) Catalytic efficiency comparison of MmLipN against p-nitrophenyl substrates. Catalytic efficiency values (kcat/Km) are given ± SD. (C, D) Kinetic activity of MmLipN against (C) short alkyl ester substrates: p-nitrophenyl acetate (C2) and p-nitrophenyl butyrate (C4) and (D) longer alkyl ester substrates: p-nitrophenyl valerate ([…]), p-nitrophenyl octonoate (C8), and p-nitrophenyl myristate (C14). Data points were fitted to the Michaelis–Menten equation and are shown ± SD.

Question: `CCCCC(=O)Oc1ccc([N+](=O)[O-])cc1` [p-nitrophenyl valerate] was tested. Which KM [1] did it give?
Answer: The KM was “MmLipN was measured against p-nitrophenyl acetate, p-nitrophenyl butyrate, p-nitrophenyl valerate”.

Question: Which results are given for “MmLipN (LipN from M. marinum) (Mycobacterium marinum M)”?
Answer: Km [2]: 0.37 ± 0.13 µM; kcat [2]: 3.7e-05 ± 3e-05 s⁻¹; kcat/Km [2]: 98 ± 43 M⁻¹ s⁻¹; Km [3]: 0.22 ± 0.12 µM; kcat [3]: 0.1 ± 0.038 s⁻¹; kcat/Km [3]: 460000 ± 150000 M⁻¹ s⁻¹; Km [4]: 0.084 ± 0.15 µM; kcat [4]: 1.4e-05 ± 5e-05 s⁻¹; kcat/Km [4]: 170 ± 330 M⁻¹ s⁻¹; Km [5]: 0.84 ± 0.60 µM; kcat [5]: 0.003 ± 0.0048 s⁻¹; kcat/Km [5]: 3500 ± 3100 M⁻¹ s⁻¹; Km [6]: 33.9 ± 7.71 µM; kcat [6]: 0.0012 ± 0.0001 s⁻¹; kcat/Km [6]: 29 ± 4 M⁻¹ s⁻¹; Km [7]: 0.40 ± 0.10 µM; kcat [7]: 0.0029 ± 0.0016 s⁻¹; kcat/Km [7]: 7400 ± 2200 M⁻¹ s⁻¹; Km [8]: 20 ± 9 µM; kcat [8]: 190 ± 10 s⁻¹; kcat/Km [8]: 9.3e+06 ± 2.1e+06 M⁻¹ s⁻¹

Question: `CCCC(=O)Oc1ccc([N+](=O)[O-])cc1` [p-nitrophenyl butyrate] was tested. Which KM [1] did it give?
Answer: Its KM is “LipN showed highest activity against p-nitrophenyl butyrate”.

Question: `CC(=O)Oc1ccc([N+](=O)[O-])cc1` [p-nitrophenyl acetate] was tested. Which KM [1] did it give?
Answer: The KM was “The enzymatic activity of MmLipN was measured against p-nitrophenyl acetate”.
